Data published in patent publication US20100055108A1.

Columns and labels:
[1] = target: human IL-17RC (human) (UniProt Q8NAC3); test: cell-based or functional assay
[2] = target: human IL-17RA (human) (UniProt Q96F46); test: cell-based or functional assay

Sequence of UniProt Q8NAC3 (Q8NAC3 21-791): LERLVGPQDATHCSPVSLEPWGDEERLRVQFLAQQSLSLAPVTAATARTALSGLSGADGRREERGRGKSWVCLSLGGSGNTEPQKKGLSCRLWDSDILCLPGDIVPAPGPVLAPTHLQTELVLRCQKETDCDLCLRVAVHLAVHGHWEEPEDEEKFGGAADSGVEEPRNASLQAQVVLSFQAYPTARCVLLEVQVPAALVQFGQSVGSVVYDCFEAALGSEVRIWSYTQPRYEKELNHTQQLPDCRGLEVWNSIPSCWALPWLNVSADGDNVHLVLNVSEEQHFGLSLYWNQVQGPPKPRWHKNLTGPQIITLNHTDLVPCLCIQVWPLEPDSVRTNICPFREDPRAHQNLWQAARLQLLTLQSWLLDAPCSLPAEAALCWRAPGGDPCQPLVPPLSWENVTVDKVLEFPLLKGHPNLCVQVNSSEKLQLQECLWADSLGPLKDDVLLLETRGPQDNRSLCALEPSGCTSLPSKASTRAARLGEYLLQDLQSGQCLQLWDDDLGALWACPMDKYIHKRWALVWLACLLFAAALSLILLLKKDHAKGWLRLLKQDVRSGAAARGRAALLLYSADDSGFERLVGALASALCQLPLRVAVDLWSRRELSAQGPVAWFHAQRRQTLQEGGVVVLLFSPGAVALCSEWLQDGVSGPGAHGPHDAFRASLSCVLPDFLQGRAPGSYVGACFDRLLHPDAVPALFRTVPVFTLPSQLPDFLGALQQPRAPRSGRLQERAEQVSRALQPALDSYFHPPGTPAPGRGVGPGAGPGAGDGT

Substance: recombinant human IL-17A (from UniProt Q16552 20-155) (ligand)
- inhibition of activation of c-Jun (c-Jun mRNA, quantitative RT-PCR) after IL-17RC iRNA knockdown in AGS cells [1]: 82%
- inhibition of activation of p65 (DNA-binding activity, TransAM NFkB kit) after IL-17RC iRNA knockdown in AGS cells [1]: 89%
- inhibition of IL-17A-induced activation of c-Jun (c-Jun mRNA, quantitative RT-PCR) after IL-17RA iRNA knockdown in AGS cells [2]: 80%
- inhibition of IL-17A-induced activation of p65 (DNA-binding activity, TransAM NFkB kit) after IL-17RA iRNA knockdown in AGS cells [2]: 97%
